For experiment [1], the target named is C3b (human) (UniProt P01024). As to the kind of experiment: ELISA. For orientation: ELISA stands for enzyme-linked immunosorbent assay.
Experiment [2] addresses C3b (human) (UniProt P01024). Put plainly: ELISA; culture supernatant.

Sequence of C3b (human) (P01024 749-1663, chain 1 of 2): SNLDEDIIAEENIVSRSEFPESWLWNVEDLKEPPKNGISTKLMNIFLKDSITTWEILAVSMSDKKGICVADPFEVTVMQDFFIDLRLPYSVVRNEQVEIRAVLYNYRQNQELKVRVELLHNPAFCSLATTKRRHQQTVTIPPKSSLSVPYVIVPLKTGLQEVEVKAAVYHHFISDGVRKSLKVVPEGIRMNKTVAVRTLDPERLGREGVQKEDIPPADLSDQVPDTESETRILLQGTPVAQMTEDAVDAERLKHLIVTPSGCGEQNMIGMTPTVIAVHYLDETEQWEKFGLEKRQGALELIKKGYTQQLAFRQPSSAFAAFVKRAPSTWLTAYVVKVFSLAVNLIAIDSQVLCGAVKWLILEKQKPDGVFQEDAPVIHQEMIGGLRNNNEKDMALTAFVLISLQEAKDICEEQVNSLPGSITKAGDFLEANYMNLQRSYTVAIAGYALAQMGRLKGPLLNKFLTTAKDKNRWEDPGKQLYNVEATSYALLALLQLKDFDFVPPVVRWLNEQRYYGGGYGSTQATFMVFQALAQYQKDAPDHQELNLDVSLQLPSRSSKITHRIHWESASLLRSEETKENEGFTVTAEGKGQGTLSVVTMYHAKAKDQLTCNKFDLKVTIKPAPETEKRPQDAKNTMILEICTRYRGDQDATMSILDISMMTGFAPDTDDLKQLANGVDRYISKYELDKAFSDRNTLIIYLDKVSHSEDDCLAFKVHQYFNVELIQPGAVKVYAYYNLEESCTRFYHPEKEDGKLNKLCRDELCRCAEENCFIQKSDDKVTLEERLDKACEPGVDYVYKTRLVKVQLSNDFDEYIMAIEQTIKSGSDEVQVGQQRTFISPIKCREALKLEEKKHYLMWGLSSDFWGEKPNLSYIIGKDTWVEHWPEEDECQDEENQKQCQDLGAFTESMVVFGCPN
Sequence of C3b (human) (P01024 23-667, chain 2 of 2): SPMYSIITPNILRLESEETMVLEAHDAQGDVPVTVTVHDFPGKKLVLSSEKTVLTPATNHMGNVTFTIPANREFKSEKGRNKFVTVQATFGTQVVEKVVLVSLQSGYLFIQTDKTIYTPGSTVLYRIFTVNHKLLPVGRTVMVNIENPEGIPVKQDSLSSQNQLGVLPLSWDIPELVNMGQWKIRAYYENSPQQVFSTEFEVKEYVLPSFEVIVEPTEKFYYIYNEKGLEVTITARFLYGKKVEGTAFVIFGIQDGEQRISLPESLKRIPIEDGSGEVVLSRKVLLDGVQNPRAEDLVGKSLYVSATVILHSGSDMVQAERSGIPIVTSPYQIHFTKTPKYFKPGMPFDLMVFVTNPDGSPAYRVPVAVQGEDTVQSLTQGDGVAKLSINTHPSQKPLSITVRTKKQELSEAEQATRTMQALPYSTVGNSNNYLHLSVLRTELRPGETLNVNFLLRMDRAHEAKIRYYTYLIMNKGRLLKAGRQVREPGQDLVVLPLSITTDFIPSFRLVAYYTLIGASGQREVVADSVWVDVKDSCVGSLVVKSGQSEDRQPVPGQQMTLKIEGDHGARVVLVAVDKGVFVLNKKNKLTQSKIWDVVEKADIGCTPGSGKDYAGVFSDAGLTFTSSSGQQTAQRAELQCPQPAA

As a reminder, the EC50 is the midpoint of the concentration-response curve. A high value points to a less potent agent. As for “Factor H-like protein 1 (FHL-1) (from UniProt P08603 19-445)”, the EC50 in the experiment with C3b (human) [1] stood at 7.1 nM; with C3b (human) [2], 6.9 nM.
